Measurements: US20030228608, “Method to enhance homologous recombination” (Promega Corporation, published 2003)

What was measured:
RecA [1] = target: T1, RecA (Thermotoga maritima, UniProt P36203 P36203:1-356); assay: EMSA; 75 C, 2 mM Mg acetate; slower assembly than 91-mer; more efficient than E. coli RecA; conditions: tags: untagged; expressed in E. coli; label: 5' fluorescein
T1 sequence: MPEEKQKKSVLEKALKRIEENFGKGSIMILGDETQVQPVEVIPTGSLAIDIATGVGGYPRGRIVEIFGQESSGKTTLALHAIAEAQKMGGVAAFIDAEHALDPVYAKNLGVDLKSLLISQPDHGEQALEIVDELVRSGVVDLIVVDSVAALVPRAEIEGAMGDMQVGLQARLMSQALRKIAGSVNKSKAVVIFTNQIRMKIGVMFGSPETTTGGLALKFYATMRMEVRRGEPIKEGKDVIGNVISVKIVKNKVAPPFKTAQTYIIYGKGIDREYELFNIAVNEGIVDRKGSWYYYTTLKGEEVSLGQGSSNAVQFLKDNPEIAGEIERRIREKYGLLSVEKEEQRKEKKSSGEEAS
Procedure: To detect recombinase coating of a substrate (nucleoprotein assembly), a gel shift assay with a labeled ssDNA may be employed. For example, 0.1 μM of a fluorescein-tagged 91-mer oligonucleotide (F-[…] […] GAT; SEQ ID NO: 1) was used as a substrate for coating by RecA. The coating buffer for E. coli RecA was 25 mM Tris acetate, pH 7.85, 15 mM potassium glutamate (K-Glu), 5 mM Mg acetate, and 2.5 mM DTT. The coating buffer for Thermotoga RecA was 25 mM Tris acetate, pH 8.0, 15 mM K-Glu, 2 mM Mg acetate, 2.5 mM DTT and 0.1% Triton. The coating buffer also included ATPyS (3 mM), or dATP and ATPγS at a ratio of 10:1 (3 mM and 0.3 mM, respectively). RecA was then added to the coating buffer containing the substrate at a ratio of 4 μM RecA for 10 μM of base. The E. coli RecA coating reaction was incubated for up to 60 minutes at 42° C. and the Thermotoga RecA coating reaction was incubated for up to 60 minutes at 75° C. (or 65° C.), although other temperatures may be employed. The tagged oligonucleotide was visualized and quantified using a FluorImager-SI and ImageQuant Software. […]

RecA [2] = target: T1, RecA; assay: EMSA; nucleoprotein assembly; 75 C, 2 mM Mg acetate, ATPgammaS or dATP/ATPgammaS; more efficient than E. coli RecA; conditions: tags: untagged; expressed in E. coli; label: 5' fluorescein
Procedure: To detect recombinase coating of a substrate (nucleoprotein assembly), a gel shift assay with a labeled ssDNA may be employed. For example, 0.1 μM of a fluorescein-tagged 91-mer oligonucleotide (F-[…] […] GAT; SEQ ID NO: 1) was used as a substrate for coating by RecA. The coating buffer for E. coli RecA was 25 mM Tris acetate, pH 7.85, 15 mM potassium glutamate (K-Glu), 5 mM Mg acetate, and 2.5 mM DTT. The coating buffer for Thermotoga RecA was 25 mM Tris acetate, pH 8.0, 15 mM K-Glu, 2 mM Mg acetate, 2.5 mM DTT and 0.1% Triton. The coating buffer also included ATPyS (3 mM), or dATP and ATPγS at a ratio of 10:1 (3 mM and 0.3 mM, respectively). RecA was then added to the coating buffer containing the substrate at a ratio of 4 μM RecA for 10 μM of base. The E. coli RecA coating reaction was incubated for up to 60 minutes at 42° C. and the Thermotoga RecA coating reaction was incubated for up to 60 minutes at 75° C. (or 65° C.), although other temperatures may be employed. The tagged oligonucleotide was visualized and quantified using a FluorImager-SI and ImageQuant Software.

B1: 35-mer (ssDNA)
DNA: GCTGATTGGCGTTGCCTAATCCAGTCTGGCCCTGC
modifications: [5'-F label (position 1)]
Question: Does B1 bind (RecA [1])?
Answer: binds

B2: 51-mer (ssDNA)
DNA: CAGTCGTTGCTGATTGGCGTTGCCTAATCCAGTCTGGCCCTGCACGCGCCG
modifications: [5'-F label (position 1)]
Question: Does B2 bind (RecA [1])?
Answer: binds

B3: 91-mer (ssDNA)
DNA: ACAACAACTGGCGGGCAAACAGTCGTTGCTGATTGGCGTTGCCTAATCCAGTCTGGCCCTGCACGCGCCGTCGCAAATTGTCGCGGCGAT
modifications: [1 (5'-fluorescein)]
Question: Does B3 bind (RecA [2])?
Answer: binds
